Test results reported in patent publication US20150140169.
Residue numbers refer to the chain shown, from its start. Numbers in names are those of the source.

T1: alpha-s1 casein from Bos taurus
T1 chain: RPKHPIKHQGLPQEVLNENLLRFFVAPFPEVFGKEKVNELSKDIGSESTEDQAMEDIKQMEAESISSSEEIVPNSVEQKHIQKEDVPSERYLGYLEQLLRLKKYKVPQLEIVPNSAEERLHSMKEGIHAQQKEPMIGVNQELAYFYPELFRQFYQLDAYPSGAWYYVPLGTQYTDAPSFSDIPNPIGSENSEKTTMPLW

B1: camel chymosin variant #152 (D290G) (protein)
chain: GKVAREPLTSYLDSQYFGKIYIGTPPQEFTVVFDTGSSDLWVPSIYCKSNVCKNHHRFDPRKSSTFRNLGKPLSIHYGTGSMEGFLGYDTVTVSNIVDPNQTVGLSTEQPGEVFTYSEFDGILGLAYPSLASEYSVPVFDNMMDRHLVARDLFSVYMDRNGQGSMLTLGAIDPSYYTGSLHWVPVTLQQYWQFTVDSVTINGVAVACVGGCQAILDTGTSVLFGPSSDILKIQMAIGATENRYGEFDVNCGNLRSMPTVVFEINGRDYPLSPSAYTSKDQGFCTSGFQGGNNSELWILGDVFIREYYSVFDRANNRVGLAKAI
B2: camel chymosin variant #166 (I297T) (protein)
chain: B1 chain with G290D, I297T
B3: camel chymosin variant #162 (L295R) (protein)
chain: B1 chain with G290D, L295R
B4: camel chymosin variant #155 (D290Q) (protein)
chain: B1 chain with G290Q
B5: camel chymosin variant #154 (D290M) (protein)
chain: B1 chain with G290M
B6: camel chymosin variant #165 (L295W) (protein)
chain: B1 chain with G290D, L295W
B7: camel chymosin variant #159 (L295I) (protein)
chain: B1 chain with G290D, L295I
B8: camel chymosin variant #157 (D290T) (protein)
chain: B1 chain with G290T
B9: Chymax M (recombinant camel chymosin) (protein)
chain: B1 chain with G290D
B10: camel chymosin variant #163 (L295T) (protein)
chain: B1 chain with G290D, L295T
B11: camel chymosin variant #164 (L295Y) (protein)
chain: B1 chain with G290D, L295Y
B12: camel chymosin variant #158 (L295F) (protein)
chain: B1 chain with G290D, L295F
B13: camel chymosin variant #161 (L295M) (protein)
chain: B1 chain with G290D, L295M
B14: camel chymosin variant #153 (D290L) (protein)
chain: B1 chain with G290L
B15: camel chymosin variant #156 (D290S) (protein)
chain: B1 chain with G290S
B16: camel chymosin variant #160 (L295K) (protein)
chain: B1 chain with G290D, L295K
B17: camel chymosin variant #167 (I297V) (protein)
chain: B1 chain with G290D, I297V
B18: bovine chymosin B variant #1 (A51V) (protein)
chain: GEVASVPLTNYLDSQYFGKIYLGTPPQEFTVLFDTGSSDFWVPSIYCKSNVCKNHQRFDPRKSSTFQNLGKPLSIHYGTGSMQGILGYDTVTVSNIVDIQQTVGLSTQEPGDVFTYAEFDGILGMAYPSLASEYSIPVFDNMMNRHLVAQDLFSVYMDRNGQESMLTLGAIDPSYYTGSLHWVPVTVQQYWQFTVDSVTISGVVVACEGGCQAILDTGTSKLVGPSSDILNIQQAIGATQNQYGEFDIDCDNLSYMPTVVFEINGKMYPLTPSAYTSQDQGFCTSGFQSENHSQKWILGDVFIREYYSVFDRANNLVGLAKAI
B19: bovine chymosin B variant #6 (K221M) (protein)
chain: B18 chain with V51A, K221M

Target: T1, alpha-s1 casein from Bos taurus

B1 and B2 are the same in (αSN1-1)/(αSN1), 6 hours, 11° C.: 0.9 for the first, 0.9 for the second.

Going from B3 to B4, the (αSN1-1)/(αSN1), 6 hours, 11° C. rises from 0.5 to 0.7.

First: B5
Second: B6
The (αSN1-1)/(αSN1), 6 hours, 11° C. of the first is lower: 1.1 for the first, 1.5 for the second.

B7 and B8 are the same in (αSN1-1)/(αSN1), 6 hours, 11° C.: 0.6 for the first, 0.6 for the second.

Compared with B10, B11 is higher in (αSN1-1)/(αSN1), 6 hours, 11° C.: 0.5 for the first, 0.6 for the second.

Going from B12 to B13, the (αSN1-1)/(αSN1), 6 hours, 11° C. falls from 0.7 to 0.6.

Compared with B14, B15 is lower in (αSN1-1)/(αSN1), 6 hours, 11° C.: 1 for the first, 0.5 for the second.

Going from B16 to B17, the (αSN1-1)/(αSN1), 6 hours, 11° C. rises from 0.6 to 0.7.

First: B1
Second: B2
The (αSN1-1)/(αSN1), 24 hours, 11° C. of the first is higher: 3.4 for the first, 3.1 for the second.

Compared with B3, B4 is higher in (αSN1-1)/(αSN1), 24 hours, 11° C.: 1.9 for the first, 2.5 for the second.

Going from B5 to B6, the (αSN1-1)/(αSN1), 24 hours, 11° C. rises from 4.6 to 6.7.

First: B7
Second: B8
The (αSN1-1)/(αSN1), 24 hours, 11° C. of the first is higher: 1.8 for the first, 1.7 for the second.

Going from B10 to B11, the (αSN1-1)/(αSN1), 24 hours, 11° C. rises from 1.6 to 1.8.

Compared with B12, B13 is lower in (αSN1-1)/(αSN1), 24 hours, 11° C.: 2.3 for the first, 2 for the second.

Going from B14 to B15, the (αSN1-1)/(αSN1), 24 hours, 11° C. falls from 4.9 to 1.9.

Compared with B16, B17 is higher in (αSN1-1)/(αSN1), 24 hours, 11° C.: 2.1 for the first, 2.9 for the second.

First: B1
Second: B2
The αs1-I CN, 6 hours, 11° C. of the first is higher: 2.18e+07 Volume for the first, 1.8e+07 Volume for the second.

First: B3
Second: B4
The αs1-I CN, 6 hours, 11° C. of the first is lower: 1.65e+07 Volume for the first, 2.03e+07 Volume for the second.

Going from B5 to B6, the αs1-I CN, 6 hours, 11° C. rises from 2.69e+07 Volume to 3.09e+07 Volume.

Compared with B7, B8 is higher in αs1-I CN, 6 hours, 11° C.: 1.7e+07 Volume for the first, 1.76e+07 Volume for the second.

First: B9
Second: B10
The αs1-I CN, 6 hours, 11° C. of the first is lower: 1.28e+07 Volume for the first, 1.48e+07 Volume for the second.

Going from B11 to B12, the αs1-I CN, 6 hours, 11° C. rises from 1.59e+07 Volume to 1.95e+07 Volume.

Going from B13 to B14, the αs1-I CN, 6 hours, 11° C. rises from 1.96e+07 Volume to 2.35e+07 Volume.

Compared with B15, B16 is higher in αs1-I CN, 6 hours, 11° C.: 1.7e+07 Volume for the first, 1.81e+07 Volume for the second.

Going from B17 to B18, the αs1-I CN, 6 hours, 11° C. falls from 2.02e+07 Volume to 1.88e+07 Volume.

B19 showed a αs1-I CN, 6 hours, 11° C. of 1.89e+07 Volume.

Going from B1 to B2, the αs1-I CN, 24 hours, 11° C. falls from 3.33e+07 Volume to 1.33e+07 Volume.

First: B3
Second: B4
The αs1-I CN, 24 hours, 11° C. of the first is lower: 3.1e+07 Volume for the first, 3.36e+07 Volume for the second.

First: B5
Second: B6
The αs1-I CN, 24 hours, 11° C. of the first is lower: 3.77e+07 Volume for the first, 3.78e+07 Volume for the second.

Compared with B7, B8 is higher in αs1-I CN, 24 hours, 11° C.: 1.97e+07 Volume for the first, 2.38e+07 Volume for the second.

First: B9
Second: B10
The αs1-I CN, 24 hours, 11° C. of the first is lower: 1.62e+07 Volume for the first, 1.79e+07 Volume for the second.

First: B11
Second: B12
The αs1-I CN, 24 hours, 11° C. of the first is higher: 2.66e+07 Volume for the first, 2.22e+07 Volume for the second.

Going from B13 to B14, the αs1-I CN, 24 hours, 11° C. rises from 2.23e+07 Volume to 3.49e+07 Volume.

Going from B15 to B16, the αs1-I CN, 24 hours, 11° C. falls from 3.16e+07 Volume to 2.49e+07 Volume.

Going from B17 to B18, the αs1-I CN, 24 hours, 11° C. rises from 2.29e+07 Volume to 2.36e+07 Volume.

In the case of B19, the αs1-I CN, 24 hours, 11° C. is reported as 2.22e+07 Volume.

First: B1
Second: B2
The αs1 CN, 6 hours, 11° C. of the first is higher: 2.51e+07 Volume for the first, 2.1e+07 Volume for the second.

Going from B3 to B4, the αs1 CN, 6 hours, 11° C. falls from 3.09e+07 Volume to 3.02e+07 Volume.

Going from B5 to B6, the αs1 CN, 6 hours, 11° C. falls from 2.52e+07 Volume to 2.12e+07 Volume.

First: B7
Second: B8
The αs1 CN, 6 hours, 11° C. of the first is lower: 2.95e+07 Volume for the first, 3.07e+07 Volume for the second.

First: B9
Second: B10
The αs1 CN, 6 hours, 11° C. of the first is lower: 2.73e+07 Volume for the first, 2.79e+07 Volume for the second.

Compared with B11, B12 is higher in αs1 CN, 6 hours, 11° C.: 2.49e+07 Volume for the first, 2.63e+07 Volume for the second.

First: B13
Second: B14
The αs1 CN, 6 hours, 11° C. of the first is higher: 3.15e+07 Volume for the first, 2.36e+07 Volume for the second.

First: B15
Second: B16
The αs1 CN, 6 hours, 11° C. of the first is higher: 3.15e+07 Volume for the first, 2.95e+07 Volume for the second.

Going from B17 to B18, the αs1 CN, 6 hours, 11° C. falls from 2.73e+07 Volume to 2.05e+07 Volume.

B19 showed a αs1 CN, 6 hours, 11° C. of 1.81e+07 Volume.

Going from B1 to B2, the αs1 CN, 24 hours, 11° C. falls from 9.7e+06 Volume to 4.2e+06 Volume.

Compared with B3, B4 is lower in αs1 CN, 24 hours, 11° C.: 1.67e+07 Volume for the first, 1.35e+07 Volume for the second.

Compared with B5, B6 is lower in αs1 CN, 24 hours, 11° C.: 8.3e+06 Volume for the first, 5.7e+06 Volume for the second.

First: B7
Second: B8
The αs1 CN, 24 hours, 11° C. of the first is lower: 1.11e+07 Volume for the first, 1.36e+07 Volume for the second.

Going from B9 to B10, the αs1 CN, 24 hours, 11° C. falls from 1.25e+07 Volume to 1.14e+07 Volume.

First: B11
Second: B12
The αs1 CN, 24 hours, 11° C. of the first is higher: 1.49e+07 Volume for the first, 9.8e+06 Volume for the second.

Compared with B13, B14 is lower in αs1 CN, 24 hours, 11° C.: 1.1e+07 Volume for the first, 7.1e+06 Volume for the second.

Going from B15 to B16, the αs1 CN, 24 hours, 11° C. falls from 1.71e+07 Volume to 1.2e+07 Volume.

First: B17
Second: B18
The αs1 CN, 24 hours, 11° C. of the first is higher: 8e+06 Volume for the first, 5.8e+06 Volume for the second.

Protein B19 has a αs1 CN, 24 hours, 11° C. of 5.1e+06 Volume.

For B9, the (αSN1-1)/(αSN1), 6 hours, 11° C. (average) was 0.5.

B9 showed a (αSN1-1)/(αSN1), 24 hours, 11° C. (average) of 1.2.

With B9 the “hydrolysis of the first cut in alpha-s1-casein” value (“hydrolysis of the first cut” below) was “shows a slow first cut in alpha-s1 casein”.
B18 was tested, and the “hydrolysis of the first cut” value was “show a clear hydrolysis of the first cut in alpha-s1-casein, leading to a rapid formation of fragment alpha-s1-I casein”.
B19 was tested, and the “hydrolysis of the first cut” value was “show a clear hydrolysis of the first cut in alpha-s1-casein, leading to a rapid formation of fragment alpha-s1-I casein”.

B9 and B18 are the same in small, 6 hours, 11° C.: 0 Volume for the first, 0 Volume for the second.

Work on B19 yielded a small, 6 hours, 11° C. of 0 Volume.

For B9, the small, 16 hours, 30° C. was 9e+06 Volume.

First: B9
Second: B18
The small, 24 hours, 11° C. of the first is higher: 1.1e+07 Volume for the first, 0 Volume for the second.

For B19, the small, 24 hours, 11° C. was 4.3e+06 Volume.

For B9, the αs1-I CN, 6 hours, 11° C. (average) was 1.81e+07 Volume.

With B9 the αs1-I CN, 16 hours, 30° C. was 4.3e+06 Volume.

With B9 the αs1-I CN, 24 hours, 11° C. (average) was 2.13e+07 Volume.

First: B9
Second: B18
The αs1-I CN/αs1 CN, 6 hours, 11° C. of the first is lower: 0.5 for the first, 0.9 for the second.

With B19 the αs1-I CN/αs1 CN, 6 hours, 11° C. was 1.

First: B9
Second: B18
The αs1-I CN/αs1 CN, 24 hours, 11° C. of the first is lower: 1.3 for the first, 4.1 for the second.

B19 gave a αs1-I CN/αs1 CN, 24 hours, 11° C. of 4.3.

With B9 the αs1 CN, 6 hours, 11° C. (average) was 3.52e+07 Volume.

B9 showed a αs1 CN, 16 hours, 30° C. of 0 Volume.

In the case of B9, the αs1 CN, 24 hours, 11° C. (average) is reported as 1.73e+07 Volume.
